Reference: PMC9482650, “Quantitative fragmentomics allow affinity mapping of interactomes” (Nature Communications, 2022)

What follows are binders tested against MAGI2_6, Q86UL8 (assay: holdup assay). Settings: plain residues with an end cap or a label only (N-terminal biotin on a linker: ado-ado).
Chain of MAGI2_6, Q86UL8 (Q86UL8 1141-1229): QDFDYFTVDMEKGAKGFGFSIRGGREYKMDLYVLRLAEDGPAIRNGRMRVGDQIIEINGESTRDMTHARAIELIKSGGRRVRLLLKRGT
Design: key: below the threshold = too weak to quantify, mostly under pKd 3.1 to 4
In the case of PAALPESTHM [SLC9A3, P48764], the pKd is reported as “below the threshold”.

Each binder was assayed against LNX1_1, Q8TBB1 (assay: holdup assay). Settings: plain residues with an end cap or a label only (N-terminal biotin on a linker: ado-ado).
Chain of LNX1_1, Q8TBB1 (Q8TBB1 261-371): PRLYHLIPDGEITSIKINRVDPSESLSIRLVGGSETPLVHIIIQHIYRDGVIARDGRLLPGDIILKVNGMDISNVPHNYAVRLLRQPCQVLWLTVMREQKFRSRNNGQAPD
Design: key: below the threshold = too weak to quantify, mostly under pKd 3.1 to 4
For PAALPESTHM [SLC9A3, P48764], the pKd was “below the threshold”.

What follows are binders tested against FRMPD4, Q14CM0 (assay: holdup assay). Settings: plain residues with an end cap or a label only (N-terminal biotin on a linker: ado-ado).
Chain of FRMPD4, Q14CM0 (Q14CM0 67-160): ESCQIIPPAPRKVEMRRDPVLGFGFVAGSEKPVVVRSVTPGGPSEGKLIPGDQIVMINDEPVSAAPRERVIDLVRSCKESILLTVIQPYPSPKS
Design: key: below the threshold = too weak to quantify, mostly under pKd 3.1 to 4
PAALPESTHM [SLC9A3, P48764] was tested, and the pKd was “below the threshold”.

These binders were tested against Inadl_6, Q8NI35 (assay: holdup assay). Settings: plain residues with an end cap or a label only (N-terminal biotin on a linker: ado-ado).
Chain of Inadl_6, Q8NI35 (Q8NI35 1058-1167): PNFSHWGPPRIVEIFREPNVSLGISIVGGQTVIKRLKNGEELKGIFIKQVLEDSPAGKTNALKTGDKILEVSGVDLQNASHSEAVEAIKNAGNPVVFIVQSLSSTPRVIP
Design: key: below the threshold = too weak to quantify, mostly under pKd 3.1 to 4
With PAALPESTHM [SLC9A3, P48764] the pKd was “below the threshold”.

These binders were tested against T1, TX1BP3, O14907 (assay: holdup assay). Settings: plain residues with an end cap or a label only (N-terminal biotin on a linker: ado-ado).
T1 sequence (O14907 10-122, limits assumed, looked up): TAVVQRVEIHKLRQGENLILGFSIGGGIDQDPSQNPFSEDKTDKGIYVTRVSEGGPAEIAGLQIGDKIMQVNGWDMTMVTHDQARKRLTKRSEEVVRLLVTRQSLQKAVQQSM
Design: key: below the threshold = too weak to quantify, mostly under pKd 3.1 to 4
With PAALPESTHM [SLC9A3, P48764] the pKd was “below the threshold”.

Each binder was assayed against T2, SNTB1, Q13884 (assay: holdup assay). Settings: plain residues with an end cap or a label only (N-terminal biotin on a linker: ado-ado).
T2 sequence (Q13884 107-205, limits assumed, looked up): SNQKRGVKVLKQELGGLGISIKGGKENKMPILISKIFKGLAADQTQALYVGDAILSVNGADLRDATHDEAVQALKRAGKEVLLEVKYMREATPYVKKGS
Design: key: below the threshold = too weak to quantify, mostly under pKd 3.1 to 4
For PAALPESTHM [SLC9A3, P48764], the pKd was “below the threshold”.

Each binder was assayed against T3, GRIP1_3, Q9Y3R0 (assay: holdup assay). Settings: plain residues with an end cap or a label only (N-terminal biotin on a linker: ado-ado).
T3 sequence (Q9Y3R0 247-346, limits assumed, looked up): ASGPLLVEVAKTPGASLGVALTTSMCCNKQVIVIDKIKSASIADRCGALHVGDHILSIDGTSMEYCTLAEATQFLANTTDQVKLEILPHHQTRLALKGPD
Design: key: below the threshold = too weak to quantify, mostly under pKd 3.1 to 4
In the case of PAALPESTHM [SLC9A3, P48764], the pKd is reported as “below the threshold”.

Each binder was assayed against MAGI1_2, Q96QZ7 (assay: holdup assay). Settings: plain residues with an end cap or a label only (N-terminal biotin on a linker: ado-ado).
Chain of MAGI1_2, Q96QZ7 (Q96QZ7 456-580): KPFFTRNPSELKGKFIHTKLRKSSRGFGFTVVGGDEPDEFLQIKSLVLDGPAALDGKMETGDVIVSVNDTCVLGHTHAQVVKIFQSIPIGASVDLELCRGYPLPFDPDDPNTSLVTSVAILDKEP
Design: key: below the threshold = too weak to quantify, mostly under pKd 3.1 to 4
PAALPESTHM [SLC9A3, P48764] was tested, and the pKd was “below the threshold”.

The binders below were run against DLG4_3, P78352 (assay: holdup assay). Settings: plain residues with an end cap or a label only (N-terminal biotin on a linker: ado-ado).
Chain of DLG4_3, P78352 (P78352 306-403): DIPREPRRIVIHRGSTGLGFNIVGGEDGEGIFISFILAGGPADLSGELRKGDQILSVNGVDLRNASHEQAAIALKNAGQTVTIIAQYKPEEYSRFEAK
Design: key: below the threshold = too weak to quantify, mostly under pKd 3.1 to 4
PAALPESTHM [SLC9A3, P48764] was tested, and the pKd was “below the threshold”.

These binders were tested against PICK1, Q9NRD5 (assay: holdup assay). Settings: plain residues with an end cap or a label only (N-terminal biotin on a linker: ado-ado).
Chain of PICK1, Q9NRD5 (Q9NRD5 17-115): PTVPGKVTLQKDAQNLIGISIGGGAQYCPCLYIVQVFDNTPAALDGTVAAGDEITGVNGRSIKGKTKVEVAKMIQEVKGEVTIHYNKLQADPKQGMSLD
Design: key: below the threshold = too weak to quantify, mostly under pKd 3.1 to 4
A pKd of 4.11 was found for PAALPESTHM [SLC9A3, P48764] in this work.

The binders below were run against T4, PDZRN3_1, Q9UPQ7 (assay: holdup assay). Settings: plain residues with an end cap or a label only (N-terminal biotin on a linker: ado-ado).
T4 sequence (Q9UPQ7 244-349, limits assumed, looked up): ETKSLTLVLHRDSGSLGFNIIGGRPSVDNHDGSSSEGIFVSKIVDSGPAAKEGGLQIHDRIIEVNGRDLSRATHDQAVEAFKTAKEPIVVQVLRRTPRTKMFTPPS
Design: key: below the threshold = too weak to quantify, mostly under pKd 3.1 to 4
PAALPESTHM [SLC9A3, P48764] was tested, and the pKd was “below the threshold”.

What follows are binders tested against T5, GRIP1_5, Q9Y3R0 (assay: holdup assay). Settings: plain residues with an end cap or a label only (N-terminal biotin on a linker: ado-ado).
T5 sequence (Q9Y3R0 568-668, limits assumed, looked up): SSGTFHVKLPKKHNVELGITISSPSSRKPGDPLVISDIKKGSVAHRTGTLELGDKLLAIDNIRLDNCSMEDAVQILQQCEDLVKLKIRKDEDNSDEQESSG
Design: key: below the threshold = too weak to quantify, mostly under pKd 3.1 to 4
With PAALPESTHM [SLC9A3, P48764] the pKd was “below the threshold”.

These binders were tested against SNX27, Q96L92 (assay: holdup assay). Settings: plain residues with an end cap or a label only (N-terminal biotin on a linker: ado-ado).
Design: key: below the threshold = too weak to quantify, mostly under pKd 3.1 to 4
With PAALPESTHM [SLC9A3, P48764] the pKd was “below the threshold”.

These binders were tested against GRIP2_4, Q9C0E4 (assay: holdup assay). Settings: plain residues with an end cap or a label only (N-terminal biotin on a linker: ado-ado).
Chain of GRIP2_4, Q9C0E4 (Q9C0E4 446-548): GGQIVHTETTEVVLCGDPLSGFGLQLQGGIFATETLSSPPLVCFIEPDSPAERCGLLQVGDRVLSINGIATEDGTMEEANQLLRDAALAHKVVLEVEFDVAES
Design: key: below the threshold = too weak to quantify, mostly under pKd 3.1 to 4
PAALPESTHM [SLC9A3, P48764] was tested, and the pKd was “below the threshold”.

What follows are binders tested against MAGI1_1, Q96QZ7 (assay: holdup assay). Settings: plain residues with an end cap or a label only (N-terminal biotin on a linker: ado-ado).
Chain of MAGI1_1, Q96QZ7 (Q96QZ7 1-106): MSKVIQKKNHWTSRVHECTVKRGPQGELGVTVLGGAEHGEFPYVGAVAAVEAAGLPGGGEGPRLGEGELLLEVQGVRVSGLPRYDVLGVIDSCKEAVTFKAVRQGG
Design: key: below the threshold = too weak to quantify, mostly under pKd 3.1 to 4
In the case of PAALPESTHM [SLC9A3, P48764], the pKd is reported as “below the threshold”.

Each binder was assayed against IL16_4, Q14005 (assay: holdup assay). Settings: plain residues with an end cap or a label only (N-terminal biotin on a linker: ado-ado).
Chain of IL16_4, Q14005 (Q14005 1229-1329): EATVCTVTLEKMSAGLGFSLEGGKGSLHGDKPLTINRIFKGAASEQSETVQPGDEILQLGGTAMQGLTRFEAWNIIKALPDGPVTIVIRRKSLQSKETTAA
Design: key: below the threshold = too weak to quantify, mostly under pKd 3.1 to 4
PAALPESTHM [SLC9A3, P48764] was tested, and the pKd was “below the threshold”.

Each binder was assayed against DLG5_1, Q8TDM6 (assay: holdup assay). Settings: plain residues with an end cap or a label only (N-terminal biotin on a linker: ado-ado).
Chain of DLG5_1, Q8TDM6 (Q8TDM6 617-713): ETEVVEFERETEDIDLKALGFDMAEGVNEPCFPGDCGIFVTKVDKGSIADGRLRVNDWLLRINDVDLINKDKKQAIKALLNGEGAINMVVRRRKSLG
Design: key: below the threshold = too weak to quantify, mostly under pKd 3.1 to 4
With PAALPESTHM [SLC9A3, P48764] the pKd was “below the threshold”.

Each binder was assayed against GRIP2_7, Q9C0E4 (assay: holdup assay). Settings: plain residues with an end cap or a label only (N-terminal biotin on a linker: ado-ado).
Chain of GRIP2_7, Q9C0E4 (Q9C0E4 934-1023): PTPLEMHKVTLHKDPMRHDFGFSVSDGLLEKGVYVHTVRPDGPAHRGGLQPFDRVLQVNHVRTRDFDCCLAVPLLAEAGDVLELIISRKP
Design: key: below the threshold = too weak to quantify, mostly under pKd 3.1 to 4
In the case of PAALPESTHM [SLC9A3, P48764], the pKd is reported as “below the threshold”.

What follows are binders tested against LNX1_2, Q8TBB1 (assay: holdup assay). Settings: plain residues with an end cap or a label only (N-terminal biotin on a linker: ado-ado).
Chain of LNX1_2, Q8TBB1 (Q8TBB1 371-470): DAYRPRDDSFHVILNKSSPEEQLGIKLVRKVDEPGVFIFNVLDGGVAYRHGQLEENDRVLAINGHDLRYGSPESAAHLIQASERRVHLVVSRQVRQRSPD
Design: key: below the threshold = too weak to quantify, mostly under pKd 3.1 to 4
For PAALPESTHM [SLC9A3, P48764], the pKd was “below the threshold”.

Each binder was assayed against GORASP1, Q9BQQ3 (assay: holdup assay). Settings: plain residues with an end cap or a label only (N-terminal biotin on a linker: ado-ado).
Chain of GORASP1, Q9BQQ3 (Q9BQQ3 1-208): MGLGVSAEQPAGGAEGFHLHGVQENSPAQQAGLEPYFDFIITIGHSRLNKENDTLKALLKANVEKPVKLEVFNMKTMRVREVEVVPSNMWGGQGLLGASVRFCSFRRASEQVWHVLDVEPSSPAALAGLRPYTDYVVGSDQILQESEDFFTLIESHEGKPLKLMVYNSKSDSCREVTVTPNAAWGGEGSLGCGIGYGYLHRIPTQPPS
Design: key: below the threshold = too weak to quantify, mostly under pKd 3.1 to 4
With PAALPESTHM [SLC9A3, P48764] the pKd was “below the threshold”.

Each binder was assayed against PDZRN4_1, Q6ZMN7 (assay: holdup assay). Settings: plain residues with an end cap or a label only (N-terminal biotin on a linker: ado-ado).
Chain of PDZRN4_1, Q6ZMN7 (Q6ZMN7 213-318): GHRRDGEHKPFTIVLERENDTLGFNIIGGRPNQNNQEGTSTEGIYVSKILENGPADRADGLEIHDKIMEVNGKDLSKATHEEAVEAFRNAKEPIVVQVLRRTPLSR
Design: key: below the threshold = too weak to quantify, mostly under pKd 3.1 to 4
In the case of PAALPESTHM [SLC9A3, P48764], the pKd is reported as “below the threshold”.

These binders were tested against SCRIB_3, Q14160 (assay: holdup assay). Settings: plain residues with an end cap or a label only (N-terminal biotin on a linker: ado-ado).
Chain of SCRIB_3, Q14160 (Q14160 999-1103): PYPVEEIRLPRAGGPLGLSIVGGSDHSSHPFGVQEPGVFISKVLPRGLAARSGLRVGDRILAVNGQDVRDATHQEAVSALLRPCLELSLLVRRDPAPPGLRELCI
Design: key: below the threshold = too weak to quantify, mostly under pKd 3.1 to 4
A pKd of 3.55 was found for PAALPESTHM [SLC9A3, P48764] in this work.

Each binder was assayed against LNX1_3, Q8TBB1 (assay: holdup assay). Settings: plain residues with an end cap or a label only (N-terminal biotin on a linker: ado-ado).
Chain of LNX1_3, Q8TBB1 (Q8TBB1 500-596): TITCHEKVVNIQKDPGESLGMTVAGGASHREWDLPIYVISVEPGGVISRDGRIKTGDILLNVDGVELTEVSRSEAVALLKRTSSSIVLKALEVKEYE
Design: key: below the threshold = too weak to quantify, mostly under pKd 3.1 to 4
PAALPESTHM [SLC9A3, P48764] was tested, and the pKd was “below the threshold”.

These binders were tested against T6, DFNB31_1, Q9P202 (assay: holdup assay). Settings: plain residues with an end cap or a label only (N-terminal biotin on a linker: ado-ado).
T6 sequence (Q9P202 135-233, limits assumed, looked up): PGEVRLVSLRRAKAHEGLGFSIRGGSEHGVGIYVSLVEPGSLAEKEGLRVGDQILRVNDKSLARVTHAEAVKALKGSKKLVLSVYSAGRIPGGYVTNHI
Design: key: below the threshold = too weak to quantify, mostly under pKd 3.1 to 4
PAALPESTHM [SLC9A3, P48764] was tested, and the pKd was “below the threshold”.

These binders were tested against GIPC2, Q8TF65 (assay: holdup assay). Settings: plain residues with an end cap or a label only (N-terminal biotin on a linker: ado-ado).
Chain of GIPC2, Q8TF65 (Q8TF65 112-203): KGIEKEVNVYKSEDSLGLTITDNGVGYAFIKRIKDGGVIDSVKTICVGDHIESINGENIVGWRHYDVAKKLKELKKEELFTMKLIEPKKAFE
Design: key: below the threshold = too weak to quantify, mostly under pKd 3.1 to 4
With PAALPESTHM [SLC9A3, P48764] the pKd was “below the threshold”.

Each binder was assayed against T7, RADIL, Q96JH8 (assay: holdup assay). Settings: plain residues with an end cap or a label only (N-terminal biotin on a linker: ado-ado).
T7 sequence (Q96JH8 971-1071, limits assumed, looked up): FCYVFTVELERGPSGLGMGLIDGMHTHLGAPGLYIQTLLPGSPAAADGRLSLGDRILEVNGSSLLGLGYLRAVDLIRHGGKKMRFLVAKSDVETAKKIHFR
Design: key: below the threshold = too weak to quantify, mostly under pKd 3.1 to 4
In the case of PAALPESTHM [SLC9A3, P48764], the pKd is reported as “below the threshold”.

Each binder was assayed against MAGI2_5, Q86UL8 (assay: holdup assay). Settings: plain residues with an end cap or a label only (N-terminal biotin on a linker: ado-ado).
Chain of MAGI2_5, Q86UL8 (Q86UL8 915-1017): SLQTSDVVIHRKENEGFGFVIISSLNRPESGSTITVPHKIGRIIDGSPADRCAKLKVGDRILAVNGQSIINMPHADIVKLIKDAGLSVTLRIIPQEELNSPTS
Design: key: below the threshold = too weak to quantify, mostly under pKd 3.1 to 4
PAALPESTHM [SLC9A3, P48764] was tested, and the pKd was “below the threshold”.

What follows are binders tested against T8, APBA3_1, O96018 (assay: holdup assay). Settings: plain residues with an end cap or a label only (N-terminal biotin on a linker: ado-ado).
T8 sequence (O96018 389-490, limits assumed, looked up): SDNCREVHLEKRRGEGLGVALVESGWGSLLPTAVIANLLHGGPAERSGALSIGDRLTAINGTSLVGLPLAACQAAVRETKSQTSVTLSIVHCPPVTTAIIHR
Design: key: below the threshold = too weak to quantify, mostly under pKd 3.1 to 4
With PAALPESTHM [SLC9A3, P48764] the pKd was “below the threshold”.

The binders below were run against Inadl_1, Q8NI35 (assay: holdup assay). Settings: plain residues with an end cap or a label only (N-terminal biotin on a linker: ado-ado).
Chain of Inadl_1, Q8NI35 (Q8NI35 113-229): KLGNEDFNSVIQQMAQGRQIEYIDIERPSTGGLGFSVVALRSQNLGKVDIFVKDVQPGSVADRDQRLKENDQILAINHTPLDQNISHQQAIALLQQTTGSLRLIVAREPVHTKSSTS
Design: key: below the threshold = too weak to quantify, mostly under pKd 3.1 to 4
In the case of PAALPESTHM [SLC9A3, P48764], the pKd is reported as “below the threshold”.
